Assay results from article PMC7171172.

Molecular target: Rhodobacter capsulatus formate dehydrogenase subunit FdsA (Rhodobacter capsulatus)
Test: cryo-EM structure; single particle analysis of the co-expressed, co-purified RcFDH complex (100 µg/ml), as isolated with 10 mM azide and after 5 min with 2 mM NADH; C2 symmetry imposed; 3.3 Å and 3.2 Å

Rhodobacter capsulatus formate dehydrogenase subunit FdsA (natural protein)
stoichiometry N: 2
